# In PMC5632315 (Biochemistry, 2016):
# No end group written: not given here.
# B1: Human MARCKS PIP2 binding domain peptide (MARCKS residues 151-175) with an added N-terminal cysteine (peptide)
# peptide: C(Alexa Fluor 555 maleimide)KKKKKRFSFKKSFKLSGFSFKKNKK
# Biological target: human calmodulin (CaM) construct possessing an N-terminal His6 tag (human, UniProt P0DP23 1-149)
# Test: single-molecule TIRF microscopy
binder,measurement,value
B1,binding result,binds
